Drawing on PMC7467569, “The Progesterone 5β-Reductase/Iridoid Synthase Family: A Catalytic Reservoir for Specialized Metabolism across Land Plants” (ACS Chemical Biology, 2020), this text covers Km, kcat and kcat/Km for 4 proteins.

Assay in all cases: purified protein
Substrate in data set [1]: C/C(C=O)=C\CC/C(C)=C/C=O
Conditions: 250 μM NADPH, 50 mM HEPES/NaOH pH 7.0, 100 mM NaCl, 25 °C, 0.1% tetrahydrofuran.

Substrate in data set [2]: CC(=O)[C@H]1CC[C@H]2[C@@H]3CCC4=CC(=O)CC[C@]4(C)[C@H]3CC[C@]12C
Conditions: 250 μM NADPH, 50 mM HEPES/NaOH pH 7.0, 100 mM NaCl, 25 °C, 1.5% ethanol.

Substrate in data set [3]: C/C(C=O)=C\CC/C(C)=C/C=O
In kind it is biochemical, Coccomyxa subellipsoidea. Conditions: 250 μM NADPH, 50 mM HEPES/NaOH pH 7.0, 100 mM NaCl, 25 °C, 0.1% tetrahydrofuran.

Substrate in data set [4]: CC(=O)[C@H]1CC[C@H]2[C@@H]3CCC4=CC(=O)CC[C@]4(C)[C@H]3CC[C@]12C
In kind it is biochemical, Coccomyxa subellipsoidea. Conditions: 250 μM NADPH, 50 mM HEPES/NaOH pH 7.0, 100 mM NaCl, 25 °C, 1.5% ethanol.

Substrate in data set [5]: C/C(C=O)=C\CC/C(C)=C/C=O
It counts as biochemical, Catharanthus roseus. Conditions: 250 μM NADPH, 50 mM HEPES/NaOH pH 7.0, 100 mM NaCl, 25 °C, 0.1% tetrahydrofuran.

B1: Arabidopsis thaliana 1 (PRISE1) (Arabidopsis thaliana) (protein)
chain: SWWWAGAIGAAKKKLDEDEPSQSFESVALIIGVTGIVGNSLAEILPLSDTPGGPWKVYGVARRPRPTWNADHPIDYIQCDVSDAEDTRSKLSPLTDVTHVFYVTWTNRESESENCEANGSMLRNVLQAIIPYAPNLRHVCLQTGTKHYLGPFTNVDGPRHDPPFTEDMPRLQIQNFYYTQEDILFEEIKKIETVTWSIHRPNMIFGFSPYSLMNIVGTLCVYAAICKHEGSPLLFPGSKKAWEGFMTASDADLIAEQQIWAAVDPYAKNEAFNCNNADIFKWKHLWKILAEQFGIEEYGFEEGKNLGLVEMMKGKERVWEEMVKENQLQEKKLEEVGVWWFADVILGVEGMIDSMNKSKEYGFLGFRNSNNSFISWIDKYKAFKIVP
Regarding B1, in data set [1], the Michaelis constant (Km) (in general, the substrate concentration at which the rate is half of its maximum) was 41.8 ± 2.75 µM; the kcat (in general, the maximal rate divided by the concentration of active sites) came out at 0.155 ± 0.004 s⁻¹; the kcat/Km (commonly the second-order rate constant that governs catalysis at low substrate concentration) came out at 3710 M⁻¹ s⁻¹. Also, the Km in data set [2] is 6.0 ± 2.5 µM.

B2: Coccomyxa subellipsoidea PRISE (Coccomyxa subellipsoidea C-169) (protein)
chain: GYVALIAGVTGVTGRNLALHLQNCDRWDAVYGGSRRPCGLGGKVKDLRMDLDNKTSLVDTLKGAQDVTHLFFCAYRPTESAATDVTTNFGMFKNVIEAGEGAGLKLKHVSFLSGTKWYGVHIGPVKTPSREDDPRAMSPNFYYDMEDYCIARVTKGADWTWSSVRPNPVCGFSTGSAMNLTMTIAVYASICKELGLPFRFPGSPQAYNVLLEVVDADLLACSMEYISTQPHAGNTSYNVSNGDVFRWSEVWPKLAAFFELPLAEPQKFSMTTMLAYHECVWQKLVEKHGLSKEVASYKDVATWGFGDWVFGQEKDWFSDVNKLRRTGFQEQNLDSAEMFLRQFKELRAAKLIP
notes: full-length synthetic gene in pOPINF, N-terminal His6 tag (no cleavage told), E. coli
In the case of B2, in data set [3], the Km was found to be 7.0 ± 1.6 µM, the kcat came out at 0.025 ± 0.001 s⁻¹ and the catalytic efficiency (kcat/Km) amounted to 3580 M⁻¹ s⁻¹. Besides, the Km in data set [4] was 23.6 ± 5.8 µM.

B3: Catharanthus roseus 5 (PRISE5, ISY) (Catharanthus roseus) (protein)
chain: MSWWWKRSIGAGKNLPNQNKENGVCKSYKSVALVVGVTGIVGSSLAEVLKLPDTPGGPWKVYGVARRPCPVWLAKKPVEYIQCDVSDNQETISKLSPLKDITHIFYVSWIGSEDCQTNATMFKNILNSVIPNASNLQHVCLQTGIKHYFGIFEEGSKVVPHDSPFTEDLPRLNVPNFYHDLEDILYEETGKNNLTWSVHRPALVFGFSPCSMMNIVSTLCVYATICKHENKALVYPGSKNSWNCYADAVDADLVAEHEIWAAVDPKAKNQVLNCNNGDVFKWKHIWKKLAEEFGIEMVGYVEGKEQVSLAELMKDKDQVWDEIVKKNNLVPTKLKEIAAFWFADIAFCSENLISSMNKSKELGFLGFRNSMKSFVSCIDKMRDYRFIP
notes: codon-optimized gene from earlier study in pOPINF, N-terminal His6 tag (no cleavage told), E. coli
Take B3: the Km in data set [5] was 8.5 ± 1.5 µM.

B4: Arabidopsis thaliana 2 (PRISE2) (Arabidopsis thaliana) (protein)
chain: GSENGSLMRRNEVDENVALIFGVTGLVGREIVKTLLMSKPGWRIYGVARNPEINSMTKMYNFISCDLLNASETKQRLSPLQDIVSHVFWVTWSGEFPLDTDECCVQNKTMLMNALDAILPNAKRLKHFSLQTGMKHYVSLVEETMARGEGSSLYYYSEECPRKSSGKNFYYVLEDLLKEKITRSSVVWSVQRPGLLMGSSSRTLYNFMGSLCVYGAMCKYLNLPFVFGGTRECWEESYIDGSDSNLVAEQHIFAATSGKVREKGEAFNAINGVGFTWKEIWPEIGKKLGVQVNETTMFDEGFWFGREMVERKHVWDEIVVKEKLVRTEIEDLANWYFLDALFRCPFKLLGKREKVDRFGFKRKYRTLDSVLYWIDVMRDEKLIPL
With B4, the Km in data set [2] amounted to 5.7 ± 2.3 µM.
